Test results taken from article PMC3510490 (Nucleic Acids Research, 2012).

Molecular target: T1, (H3–H4)2 tetramer (Xenopus laevis, UniProt P84233 1-136; P62799 1-103, H4 E63C, Alexa 488 maleimide on C63 (H4 E63C))
T1 construct: Histone H3, Xenopus laevis; also called H3–H4 tetramer; H3–H4 complex; copies: 2 + 2
Assay: other fluorescence titration; Arp constructs or sub-complex titrated (1 to 5000 nM) into fluorescently labelled histone complexes or nucleosomes kept at 0.5-1 nM, 40 µl in microplates; 20 mM Tris pH 7.5, 150 mM KCl, 5% glycerol, 1 mM TCEP, 0.01% CHAPS, 0.01% octylglucoside; room temperature, 20-30 min; apparent Kd and Hill coefficient from non-linear fit; quadruplicates
Conditions: both partners purified

B1: Saccharomyces cerevisiae Arp8 (natural protein)
chain: MSQEEAESSIIYEEPIDIPLEDDDDEDELEEENSVPLSSQADQENAENESDDSVDNVVGSETPRSVTGLSVDPRDVADEEDEDEEGEDEDEDEDDNDVDNEDENDNDNANENENELGSSRDKRAPPAVQTSKRYKKYPKLDPAKAPPGKKVPLHLLEKRRLGRIKAAEEFAKTLKKIGIEKVETTTLPATGLFQPLMLINQKNYSSDYLKKDDQIFALRDRKFLRNNNTSQISSTNTPDVIDLKSLPHSEASAAPLNDEIDLNDPTATIVIHPGSNSIKIGFPKDDHPVVVPNCVAVPKKWLDLENSEHVENVCLQREQSEEFNNIKSEMEKNFRERMRYYKRKVPGNAHEQVVSFNENSKPEIISEKNDPSPIEWIFDDSKLYYGSDALRCVDEKFVIRKPFRGGSFNVKSPYYKSLAELISDVTKLLEHALNSETLNVKPTKFNQYKVVLVIPDIFKKSHVETFIRVLLTELQFQAVAIIQESLATCYGAGISTSTCVVNIGAAETRIACVDEGTVLEHSAITLDYGGDDITRLFALFLLQSDFPLQDWKIDSKHGWLLAERLKKNFTTFQDADVAVQLYNFMNRSPNQPTEKYEFKLFDEVMLAPLALFFPQIFKLIRTSSHKNSSLEFQLPESRDLFTNELNDWNSLSQFESKEGNLYCDLNDDLKILNRILDAHNIIDQLQDKPENYGNTLKENFAPLEKAIVQSIANASITADVTRMNSFYSNILIVGGSSKIPALDFILTDRINIWRPSLLSSASFPQFYKKLTKEIKDLEGHYVNAPDKTEDENKQILQAQIKEKIVEELEEQHQNIEHQNGNEHIFPVSIIPPPRDMNPALIIWKGASVLAQIKLVEELFITNSDWDVHGSRILQYKCIFTY
notes: Actin-related protein 8 (Arp8), S. cerevisiae; also called Sc Arp8; yeast Arp8
Kd: 485 nM

B2: Saccharomyces cerevisiae Arp4 (natural protein)
chain: MSNAALQVYGGDEVSAVVIDPGSYTTNIGYSGSDFPQSILPSVYGKYTADEGNKKIFSEQSIGIPRKDYELKPIIENGLVIDWDTAQEQWQWALQNELYLNSNSGIPALLTEPVWNSTENRKKSLEVLLEGMQFEACYLAPTSTCVSFAAGRPNCLVVDIGHDTCSVSPIVDGMTLSKSTRRNFIAGKFINHLIKKALEPKEIIPLFAIKQRKPEFIKKTFDYEVDKSLYDYANNRGFFQECKETLCHICPTKTLEETKTELSSTAKRSIESPWNEEIVFDNETRYGFAEELFLPKEDDIPANWPRSNSGVVKTWRNDYVPLKRTKPSGVNKSDKKVTPTEEKEQEAVSKSTSPAANSADTPNETGKRPLEEEKPPKENNELIGLADLVYSSIMSSDVDLRATLAHNVVLTGGTSSIPGLSDRLMTELNKILPSLKFRILTTGHTIERQYQSWLGGSILTSLGTFHQLWVGKKEYEEVGVERLLNDRFR
notes: Actin-related protein 4 (Arp4), S. cerevisiae; also called Sc Arp4; yeast Arp4
Kd: 74.3 nM
